Laboratory results as given in the supplement of paper PMC12042874.
± gives the uncertainty stated by the source.

assay: amyloid nucleation score (Sup35N fusion, yeast selection) (log enrichment); library NNK1; higher = more nucleation; inactive = no reads after selection
Procedure, shortened: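 Nucleation score is defined as the DiMSum log enrichment of output over input reads, with centring on the mode score of non-aggregating sequences. A minimum of 100 input reads was required for each sequence. Reads came from Illumina sequencing of plasmid inserts from psi-negative yeast expressing Sup35N fused to peptides of 20 random codons, induced with 100 μM copper sulfate for 24 hours and grown 7 days at 30°C on medium lacking adenine and uracil.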

Compared with EYSVYDRYRPGNCCRTSRMD, FAFTIFPCYYWDLNCLRFQH is higher in amyloid nucleation score: 0.251 ± 0.31 for the first, 6.549 ± 0.047 for the second.

Compared with FAGLSHWKPLDGTMGVGDRV, FAIFKSTIPINSVVWPIIMH is higher in amyloid nucleation score: -0.526 ± 0.41 for the first, 0.87 ± 0.3 for the second.

FATYWVHDMAWRMSGVQMSV and FAVSRVEMNLGL are within error of each other in amyloid nucleation score: 0.307 ± 0.84 for the first, -0.117 ± 0.34 for the second.

FAWEVKTDYRWYNPWLGRAC and FAWGGFC are within error of each other in amyloid nucleation score: -0.838 ± 2.1 for the first, -0.155 ± 0.86 for the second.

Compared with FCCMGDMYFCSDFQSVSLFL, FCCNWSCNCLRMG is lower in amyloid nucleation score: 8.454 ± 0.065 for the first, 7.799 ± 0.051 for the second.

FCFGGNVGRYLMVRPCVFGY and FCHVRTL are within error of each other in amyloid nucleation score: 0.035 ± 0.71 for the first, -0.97 ± 1.7 for the second.

FCNWAL and FCRDVSVYLDYLDGPRSGWS are within error of each other in amyloid nucleation score: -0.18 ± 0.5 for the first, -0.245 ± 0.35 for the second.

Compared with FCRGKPRRLVP, FCRHLGLSS is higher in amyloid nucleation score: -0.219 ± 0.67 for the first, 1.25 ± 0.44 for the second.

FCVGYRCWMYN and FCVRTEYSGGELAARSLDFA are within error of each other in amyloid nucleation score: -0.086 ± 0.25 for the first, 0.498 ± 0.97 for the second.

Compared with FCVRWILPLDISMGDRHSSE, FCYYKCNESGP is lower in amyloid nucleation score: 0.592 ± 0.49 for the first, -0.751 ± 0.71 for the second.

FDANGVCSSITSCM and FDGFRGNG are within error of each other in amyloid nucleation score: -0.359 ± 0.53 for the first, 0.487 ± 0.49 for the second.

FDIVDANKGAAPGKTVYLWR and FDTGGVRRRCACVSLYGVDV are within error of each other in amyloid nucleation score: 0.641 ± 0.93 for the first, 0.027 ± 0.43 for the second.

FDVGSFTGIGV and FEGRGFKDNATQENNSEFAS are within error of each other in amyloid nucleation score: 0.115 ± 0.77 for the first, 0.4 ± 0.46 for the second.

FENDWNLINLLGF and FESTPLVGHTRASSRYCARF are within error of each other in amyloid nucleation score: 1.49 ± 0.55 for the first, -0.742 ± 2.1 for the second.

Compared with FFCRFGILFSTKGFLGFMRF, FFFNCMRWSCMKVDHTGFVG is lower in amyloid nucleation score: 1.01 ± 0.67 for the first, -0.255 ± 0.47 for the second.

First: FFGFCSSVES
Second: FFHSAYCFCNNLPMGLDLWS
The amyloid nucleation score of the first is lower: 0.662 ± 0.51 for the first, 5.81 ± 0.083 for the second.

First: FFIDMCEL
Second: FFILRNQRPIC
The amyloid nucleation score of the first is lower: -0.897 ± 0.53 for the first, 1.76 ± 0.2 for the second.

FFLRSPFL and FFMIRRMLVTGWARQCIPRY are within error of each other in amyloid nucleation score: 0.016 ± 0.41 for the first, -0.105 ± 0.75 for the second.

First: FFNYRVMKRHYSVYLCVGSM
Second: FFSKNT
The amyloid nucleation score of the first is higher: 1.18 ± 0.14 for the first, -0.041 ± 0.26 for the second.

Going from FFTVSVYLHVRGVAYESAAA to FFVLRLSLTFWSCKS, the amyloid nucleation score rises from 0.252 ± 0.32 to 1.3 ± 0.56.

FFVPSYLPFMMFHVLSCRDF and FFWLVAK are within error of each other in amyloid nucleation score: -0.417 ± 0.45 for the first, -1.18 ± 1.2 for the second.

FFWNRWRRTQRANTMLMMRM and FGDWGCRRRNVSA are within error of each other in amyloid nucleation score: 0.402 ± 0.68 for the first, -0.269 ± 0.37 for the second.

FGEYSCGRREMPYCFLDYYL and FGFTGLTSW are within error of each other in amyloid nucleation score: 0.356 ± 0.41 for the first, -0.146 ± 1.4 for the second.

FGFVSPGPY and FGIIGEERNLRAAPMAGGRP are within error of each other in amyloid nucleation score: -0.611 ± 0.51 for the first, -0.455 ± 1.2 for the second.

FGLYVYLPEGRHACVALRTV and FGNRFEYRFERTN are within error of each other in amyloid nucleation score: -0.89 ± 0.88 for the first, -0.482 ± 1.1 for the second.

FGPMLHTLDLCWRGMWIS and FGPNVSFR are within error of each other in amyloid nucleation score: -1.56 ± 2.7 for the first, -0.638 ± 0.54 for the second.

Going from FGVNCNYCLILVQCMC to FGVSVLCSEWGTPRFVCWVN, the amyloid nucleation score falls from 2.35 ± 0.52 to -0.6 ± 0.43.

Compared with FGWGTLIGGLWTDNEQSLFT, FGWLFVCEVSAAGPPTLIWT is higher in amyloid nucleation score: -0.375 ± 0.49 for the first, 3.11 ± 0.15 for the second.

FHMARKQETTSI and FHRNHRINNRMSMAYSC are within error of each other in amyloid nucleation score: -0.18 ± 1.7 for the first, 0.059 ± 0.9 for the second.

FHSLRLRLMRNYG and FHSMDEHVLLILTKNSV are within error of each other in amyloid nucleation score: -0.31 ± 1.4 for the first, 0.317 ± 0.6 for the second.

FIESVL and FIGMTDPMSIDILLLSS are within error of each other in amyloid nucleation score: 1.14 ± 0.67 for the first, 0.389 ± 0.58 for the second.

First: FIKHGNLSAKQPVEKDLKLD
Second: FIMIDRPETLQPNLDGLKL
The amyloid nucleation score of the first is higher: 0.414 ± 0.46 for the first, -0.524 ± 0.45 for the second.

Compared with FIMVCGSKGLLVALGALE, FINLASVVSIVVLVT is higher in amyloid nucleation score: -0.752 ± 1.3 for the first, 4.24 ± 0.076 for the second.

Compared with FINWLPNNDHFFCRNWICLQ, FISNIFKMKMATQSGGLGVR is lower in amyloid nucleation score: 5.902 ± 0.05 for the first, -0.789 ± 0.71 for the second.

Going from FITYRGSKVRAFLSR to FKCRACMLYDVYIAERWVTG, the amyloid nucleation score rises from -1.46 ± 0.9 to -0.022 ± 0.37.

FKCYWAVCIELWYGCSTVGL and FKEYQRNA are within error of each other in amyloid nucleation score: 0.588 ± 1.2 for the first, -1.04 ± 2.7 for the second.

Compared with FKGQSVCFDLVGWFEVLCQG, FKLAIVSIFCINSWYNESLR is higher in amyloid nucleation score: -0.381 ± 0.85 for the first, 5.866 ± 0.049 for the second.

FKTDRGTRHFDFYYCV and FKVSVALSWDDVSQFGYGYG are within error of each other in amyloid nucleation score: 0.395 ± 0.21 for the first, 0.117 ± 0.65 for the second.

Going from FLATYLMEVYMMDSWNF to FLAVIGAPNRCDFGQSMLRM, the amyloid nucleation score rises from -1.65 ± 1.4 to 3.51 ± 0.081.

FLFRGV and FLIEMCYV are within error of each other in amyloid nucleation score: -0.28 ± 0.91 for the first, -0.484 ± 0.88 for the second.

FLIFKSCLVGILRSSNKIGC and FLKKGERTIF are within error of each other in amyloid nucleation score: -0.469 ± 1.1 for the first, -0.446 ± 1 for the second.

Compared with FLLHF, FLMGTFDCCTVSVLFFAGK is higher in amyloid nucleation score: -0.177 ± 0.62 for the first, 5.44 ± 0.055 for the second.

Compared with FLQEVITDLKSVW, FLQSIEGRSETGRMSRAISV is lower in amyloid nucleation score: 3.08 ± 0.12 for the first, 1.08 ± 0.93 for the second.

FLRLAWGFLIMHEIRYAGWS and FLSCFDILLHGVSYNSFQYW are within error of each other in amyloid nucleation score: 0.413 ± 1.2 for the first, 0.54 ± 0.42 for the second.

Going from FLSEMWTKVICWVCCCPVYA to FLSTCGCFRKLGWVMCECLG, the amyloid nucleation score falls from 4.64 ± 0.062 to -0.19 ± 0.47.

Going from FLTNNLYCTPYF to FLVNFGWRFAD, the amyloid nucleation score falls from 3.19 ± 0.079 to 1.14 ± 0.32.

First: FLWSYWPCSVGTEMTSQVRI
Second: FMCTINKFLYTVACPWHYLP
The amyloid nucleation score of the first is lower: -0.459 ± 0.82 for the first, 3.96 ± 0.16 for the second.

FMIAFVFSKTRGQSIVSYSV and FMRYNCNCKWDYFFRDCPAG are within error of each other in amyloid nucleation score: -0.747 ± 0.85 for the first, -0.357 ± 0.36 for the second.

FMSNIDLFTGFLRDMWFIIF and FMSYD are within error of each other in amyloid nucleation score: -0.312 ± 0.55 for the first, 0.362 ± 0.79 for the second.

Compared with FMTEWSVTFMRMYMAYLGSV, FMYKMGSYGMDM is lower in amyloid nucleation score: 0.424 ± 0.29 for the first, -0.57 ± 0.5 for the second.

Compared with FNAIWVVLRVRNREYKTSVL, FNCRVNFFDSVGY is higher in amyloid nucleation score: 1.03 ± 0.7 for the first, 3.28 ± 0.16 for the second.

FNDEHKSSIG and FNDQVQTWWLSYFEAPRYFK are within error of each other in amyloid nucleation score: -0.549 ± 0.58 for the first, -1.29 ± 2.4 for the second.

Going from FNKVSAMDEAREYGVEVVAV to FNLFVTFSMLRPWSAVPMLA, the amyloid nucleation score falls from 5.46 ± 0.073 to 0.338 ± 0.81.

FNLITSD and FNLVKT are within error of each other in amyloid nucleation score: 0.074 ± 0.52 for the first, 0.704 ± 0.69 for the second.

FNMENVGKSQSRAAVRVRH and FNMNHGMVSVRVEDRISRAC are within error of each other in amyloid nucleation score: 0.961 ± 0.42 for the first, 0.579 ± 0.28 for the second.

FNRLSCFFSKSHPVQTGYNS and FNRNNMKYQYFLKRIYMNW are within error of each other in amyloid nucleation score: -0.01 ± 0.51 for the first, -0.338 ± 1.4 for the second.

FNRSLLLALVSAFENGLLSW and FNYIFRWLVMGTGSCTGS are within error of each other in amyloid nucleation score: 0.51 ± 1.2 for the first, 0.45 ± 0.29 for the second.

FQCDVIYA and FQRTGQKMWNNKKCSGRQHD are within error of each other in amyloid nucleation score: -0.72 ± 0.52 for the first, -0.648 ± 0.51 for the second.

Compared with FQSECSCIPKAWSVFMGTAG, FRCYVFANCD is higher in amyloid nucleation score: -0.476 ± 0.58 for the first, 1.59 ± 0.4 for the second.

FRDYLAKPCGGWEEYLVDDT and FRHPMTDDDTPWKAARFVE are within error of each other in amyloid nucleation score: 0.68 ± 0.48 for the first, -1.6 ± 2.4 for the second.

With EYTGSEPYLLVQVSLLNQRV the amyloid nucleation score was “inactive”.
In the case of FDHSG, the amyloid nucleation score is reported as “inactive”.
For FEGLVQL, the amyloid nucleation score was “inactive”.
In the case of FERSW, the amyloid nucleation score is reported as “inactive”.
With FFMLGSSY the amyloid nucleation score was “inactive”.
With FLIYVQYTKYSLWAPVFIHR the amyloid nucleation score was “inactive”.
In the case of FLYDYYG, the amyloid nucleation score is reported as “inactive”.
In the case of FNMPDKQILKLESLWHGMVA, the amyloid nucleation score is reported as “inactive”.
In the case of FPILVCVLKVLDVVLSDRVL, the amyloid nucleation score is reported as “inactive”.
In the case of FQGLSFKHGAIGSAYSQSFD, the amyloid nucleation score is reported as “inactive”.
